The text below walks through data of article PMC4320081.

The labels stand for the following.
B1: TsalNb-11-HRP (VHH)
VHH: QVQLQESGGGLVQPGESLRLSCAASEFTLDYYAMAWYRQAPGKQREGVSCITSSGGRTNYADSVKGRFTISRENGKNTVYLQMSSLKPGDTAVYYCAATEWLAGTKCLGSHEYDYWGQGTQVTVSS
B2: TsalNb-5-HRP (VHH)
VHH: QVQLQESGGGLVQPGGSLRLSCAGSGLTLDYYAMGWYRQAPGKQREGVSCITSSGGRTNYADSVKGRFTISRDNAKNTVSLQMNSLKPEDTAVYYCAATEWLAGTKCLLSHEYDYWGQGTQVTVSS
B3: TsalNb-1 (VHH)
VHH: QVQLQESGGGLVQVGGSLRLSCTASGSIFSINYANWYRQAPGKQRELVAGITSDGSTNYADSVKGRFTISRDNAKNTVYLQMNRLTPEDTAVYYCKPRAWLTGRWENYWGQGTQVTVSS
B4: TsalNb-2 (VHH)
VHH: QVQLQESGGGLVQVGGSLRLSCQASGSIFSNSYMGWYRQAPGKQRELVAGITSGGSTNYADSVKGRFTISRDNAKNTVYLQMNSLKPEDTAVYYCKPRAWLTGRWENYWGQGTQVTVSS
B5: TsalNb-4 (VHH)
VHH: QVQLQESGGGLVQVGGSLRLSCTASGSIFSINYAGWYRQAPGKQRELVAGITSGGSTNYADSVKGRFTISRDSAKNTVYLQMNSLKAEDTAVYYCKPRAWLTGRWENYWGQGTQVTVSS
B6: TsalNb-12 (VHH)
VHH: QVQLQESGGGLVQPGGSLRLSCTASGSIFSINYANWYRQAPGKQRELVAGITSDGSTNYADSVKGRFTISRDNAKNTVYLQMNRLTPEDTAVYYCKPRAWLTGRWENYWGQGTQVTVSS
B7: TsalNb-10 (VHH)
VHH: QVQLQESGGGLVQVGGSLRLSCAASGSIFSNNYMGWYRQAPGKQRELVAGITSGGSTNYADSVKGRFTISRDNAKNTVYLQMNNLKPEDTAVYNCKPRGWLTGRWENYWGQGTQVTVSS
B8: TsalNb-3 (VHH)
VHH: QVQLQESGGGLVQVGGSLRLSCAVSGSIFSNNYMGWYRQAPGKQRELVAGITSGGSTNYADSVKGRFTISRDNAKNTVYLQMNSLLPEDTAVYYCKPRGWLTGRWENYWGQGTQVTVSS
B9: TsalNb-11 (VHH)
VHH: QVQLQESGGGLVQPGESLRLSCAASEFTLDYYAMAWYRQAPGKQREGVSCITSSGGRTNYADSVKGRFTISRENGKNTVYLQMSSLKPGDTAVYYCAATEWLAGTKCLGSHEYDYWGQGTQVTVSS
B10: TsalNb-5 (VHH)
VHH: QVQLQESGGGLVQPGGSLRLSCAGSGLTLDYYAMGWYRQAPGKQREGVSCITSSGGRTNYADSVKGRFTISRDNAKNTVSLQMNSLKPEDTAVYYCAATEWLAGTKCLLSHEYDYWGQGTQVTVSS
B11: TsalNb-8 (VHH)
VHH: QVQLQESGGGLVQPGGSLRLSCAASVLTLDYYAMAWYRQAPGKQREGVSCITSSGGRTNYADSVKGRFTISRDNAKNMVYLQMNSLKPEDTAVYYCAATEWLAGTKCLSSHEYDYWGQGTQVTVSS

The first assay addresses native Tsal proteins in G. m. morsitans saliva (Glossina morsitans morsitans (endogenous in saliva)). Kind of assay: ELISA; competitive ELISA: 250 ng G. m. morsitans saliva coated per well, plasma (immune, naive or control) applied 1 h, then HRP-conjugated Nb (1:160 or 1:320) 1 h; ABTS, O.D. 405 nm. (In an ELISA, binding on a coated surface is turned into a signal by an enzyme label.)
As to B1, the mean endpoint O.D.405nm of controls (control mouse plasma) was 2.35 O.D._(405nm) and the mean endpoint O.D.405nm of controls (control porcine plasma) is 2.24 O.D._(405nm).

Turning to B2, the mean endpoint O.D.405nm of controls (control mouse plasma) is 2.26 O.D._(405nm) and the mean endpoint O.D.405nm of controls (control porcine plasma) was 2.31 O.D._(405nm).

The target is the same in a further assay. Described as above. The source holds these as a separate data set.
B1: the mean endpoint O.D.405nm of controls (control porcine plasma) is 2.29 O.D._(405nm).

As to B2, the mean endpoint O.D.405nm of controls (control porcine plasma) is 2.23 O.D._(405nm).

For another assay the target is unchanged. The experiment in a line: SPR; 4000 RU G. m. morsitans saliva amine-coupled (10 mM sodium acetate pH 4.5) on a CM5 chip; purified Nb analytes 500 to 0.976 nM; BIAcore T200; contact 180 s, dissociation 600 s, 10 ul/min; Langmuir 1:1 fit. A general note: Surface plasmon resonance follows binding to a sensor surface in real time, without labels.
For the molecule B3, the dissociation constant Kd (in general, the concentration at which binding is half-saturated) was determined as 0.44 nM; the koff (in general, a measure of how fast the partners let go of each other) stood at 0.00037 s⁻¹; the kon (usually a measure of how fast the partners come together) amounted to 850000 M⁻¹ s⁻¹.

For B4, the Kd is 0.64 nM, the koff was 0.00077 s⁻¹ and the kon was determined as 1.2e+06 M⁻¹ s⁻¹.

The molecule B5 returned a Kd of 0.44 nM, an off-rate (koff) of 0.0005 s⁻¹ and a kon of 1.1e+06 M⁻¹ s⁻¹.

As to B6, the Kd is 0.47 nM, the dissociation rate constant (koff) turned out to be 0.00039 s⁻¹ and the association rate constant (kon) is 830000 M⁻¹ s⁻¹.

In turn, B7 returned a dissociation constant (Kd) of 0.79 nM, a koff of 0.001 s⁻¹ and a kon of 1.3e+06 M⁻¹ s⁻¹.

As for B8, the Kd came out at 0.54 nM, the off-rate (koff) stood at 0.00051 s⁻¹ and the kon was 930000 M⁻¹ s⁻¹.

B9 had a Kd of 2.7 nM, a koff of 0.0035 s⁻¹ and a kon of 1.3e+06 M⁻¹ s⁻¹.

With B10, the dissociation constant Kd was found to be 4.4 nM, the koff came out at 0.004 s⁻¹ and the kon was determined as 910000 M⁻¹ s⁻¹.

For B11, the Kd came to 18 nM, the koff is 0.017 s⁻¹ and the on-rate constant (kon) came to 970000 M⁻¹ s⁻¹.
